This is an account of results in article PMC5762833, “Direct Molecular Fishing of New Protein Partners for Human Thromboxane Synthase” (Acta Naturae, 2017).

The target of test [1] is T1, Human thromboxane synthase (TBXAS1) (human, UniProt P24557 1-533).
T1 construct: thromboxane synthase (TBXAS1, CYP5A1), human, recombinant; Covalently immobilised on CNBr-Sepharose 4B (fishing) or on a CM5 chip (SPR); also used as analyte; also called CYP5A1
T1 sequence (looked up): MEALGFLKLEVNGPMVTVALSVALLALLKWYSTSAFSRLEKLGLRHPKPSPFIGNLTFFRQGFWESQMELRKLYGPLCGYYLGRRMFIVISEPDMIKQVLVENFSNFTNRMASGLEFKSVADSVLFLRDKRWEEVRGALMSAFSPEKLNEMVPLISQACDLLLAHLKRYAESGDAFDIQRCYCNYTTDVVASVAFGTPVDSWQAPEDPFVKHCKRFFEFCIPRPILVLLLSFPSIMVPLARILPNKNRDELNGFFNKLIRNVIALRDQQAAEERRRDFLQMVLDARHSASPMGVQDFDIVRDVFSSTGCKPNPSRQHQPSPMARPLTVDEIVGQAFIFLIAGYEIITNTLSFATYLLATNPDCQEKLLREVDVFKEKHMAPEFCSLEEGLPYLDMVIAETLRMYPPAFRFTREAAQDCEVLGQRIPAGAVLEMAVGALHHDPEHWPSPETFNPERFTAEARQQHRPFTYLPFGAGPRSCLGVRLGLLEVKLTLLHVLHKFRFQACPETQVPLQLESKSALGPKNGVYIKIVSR
Briefly: SPR; as a2, with isatin added to the analyte samples at a final concentration of 100 μM and incubated for 15 min. The following applies: both partners purified.

For test [2], the target named is T1, Human thromboxane synthase (TBXAS1). The test is described as follows: SPR; Biacore 3000; TBXAS1 amine-coupled to a CM5 chip (about 7,500 RU); analytes 50 nM to 5 μM injected for 10 min at 5 μL/min; control channel without protein. The note with it: both partners purified.

B1: 4-nitrophenol-2-hydroxylase (CYP2E1), recombinant (enzyme, UniProt P05181 1-493, looked up)
chain: MSALGVTVALLVWAAFLLLVSMWRQVHSSWNLPPGPFPLPIIGNLFQLELKNIPKSFTRLAQRFGPVFTLYVGSQRMVVMHGYKAVKEALLDYKDEFSGRGDLPAFHAHRDRGIIFNNGPTWKDIRRFSLTTLRNYGMGKQGNESRIQREAHFLLEALRKTQGQPFDPTFLIGCAPCNVIADILFRKHFDYNDEKFLRLMYLFNENFHLLSTPWLQLYNNFPSFLHYLPGSHRKVIKNVAEVKEYVSERVKEHHQSLDPNCPRDLTDCLLVEMEKEKHSAERLYTMDGITVTVADLFFAGTETTSTTLRYGLLILMKYPEIEEKLHEEIDRVIGPSRIPAIKDRQEMPYMDAVVHEIQRFITLVPSNLPHEATRDTIFRGYLIPKGTVVVPTLDSVLYDNQEFPDPEKFKPEHFLNENGKFKYSDYFKPFSTGKRVCAGEGLARMELFLLLCAILQHFNLKPLVDPKDIDLSPIHIGFGCIPPRYKLCVIPRS
notes: cytochrome P450 2E1, recombinant; also called cytochrome P450 2E1
As for B1, in test [1], the “fold decrease in koff with 100 μM isatin against no isatin” value turned out to be 2.5 fold, the “fold increase in affinity with 100 μM isatin against no isatin” value came to 5 fold and the “fold increase in kon with 100 μM isatin against no isatin” value was 2 fold. In test [2], the Kd is 430 nM, the “fold difference of koff against TBXAS1•CYP11B2 (CYP2E1 the slower)” value amounted to 15 fold and the “fold difference of kon against TBXAS1•CYP11B2 (CYP2E1 the slower)” value came to 10 fold.

B2: aldosterone synthase (CYP11B2) (enzyme, UniProt P19099 25-503, looked up)
chain: GTRAARAPRTVLPFEAMPQHPGNRWLRLLQIWREQGYEHLHLEMHQTFQELGPIFRYNLGGPRMVCVMLPEDVEKLQQVDSLHPCRMILEPWVAYRQHRGHKCGVFLLNGPEWRFNRLRLNPDVLSPKAVQRFLPMVDAVARDFSQALKKKVLQNARGSLTLDVQPSIFHYTIEASNLALFGERLGLVGHSPSSASLNFLHALEVMFKSTVQLMFMPRSLSRWISPKVWKEHFEAWDCIFQYGDNCIQKIYQELAFNRPQHYTGIVAELLLKAELSLEAIKANSMELTAGSVDTTAFPLLMTLFELARNPDVQQILRQESLAAAASISEHPQKATTELPLLRAALKETLRLYPVGLFLERVVSSDLVLQNYHIPAGTLVQVFLYSLGRNAALFPRPERYNPQRWLDIRGSGRNFHHVPFGFGMRQCLGRRLAEAEMLLLLHHVLKHFLVETLTQEDIKMVYSFILRPGTSPLLTFRAIN
notes: aldosterone synthase (CYP11B2), mitochondrial cytochrome P450, recombinant
With B2, binding in test [2] was characterised by a dissociation constant (Kd) of 690 nM.
